Experiments:
[1] = target: SycO (Yersinia enterocolitica type three secretion chaperone SycO) (Yersinia enterocolitica WA-314); assay: SEC; analytical gel filtration, SMART system, Superdex 75 PC 3.2/30 in PBS; 50 μg SycO mixed with 50 μg carbonic anhydrase (29 kDa marker); fractions analysed by SDS-PAGE; column calibrated with marker proteins
[2] = target: SycO (Yersinia enterocolitica type three secretion chaperone SycO) (Yersinia enterocolitica WA-314); assay: cross-linking; 1.3 mM DSP, 3 μg/μl recombinant SycO in PBS, 30 min at 22°C; Coomassie-stained SDS-PAGE

SycO (Yersinia enterocolitica type three secretion chaperone SycO) (natural protein)
stoichiometry N [1]: 2 | stoichiometry N [2]: 2
